T1: mouse Sema 3A protein (mouse, UniProt O08665 21-772, limits assumed)
T1 construct: Produced from mouse Sema 3A protein expressing cells; also called Mouse Sema 3A antigen
T1 sequence (looked up): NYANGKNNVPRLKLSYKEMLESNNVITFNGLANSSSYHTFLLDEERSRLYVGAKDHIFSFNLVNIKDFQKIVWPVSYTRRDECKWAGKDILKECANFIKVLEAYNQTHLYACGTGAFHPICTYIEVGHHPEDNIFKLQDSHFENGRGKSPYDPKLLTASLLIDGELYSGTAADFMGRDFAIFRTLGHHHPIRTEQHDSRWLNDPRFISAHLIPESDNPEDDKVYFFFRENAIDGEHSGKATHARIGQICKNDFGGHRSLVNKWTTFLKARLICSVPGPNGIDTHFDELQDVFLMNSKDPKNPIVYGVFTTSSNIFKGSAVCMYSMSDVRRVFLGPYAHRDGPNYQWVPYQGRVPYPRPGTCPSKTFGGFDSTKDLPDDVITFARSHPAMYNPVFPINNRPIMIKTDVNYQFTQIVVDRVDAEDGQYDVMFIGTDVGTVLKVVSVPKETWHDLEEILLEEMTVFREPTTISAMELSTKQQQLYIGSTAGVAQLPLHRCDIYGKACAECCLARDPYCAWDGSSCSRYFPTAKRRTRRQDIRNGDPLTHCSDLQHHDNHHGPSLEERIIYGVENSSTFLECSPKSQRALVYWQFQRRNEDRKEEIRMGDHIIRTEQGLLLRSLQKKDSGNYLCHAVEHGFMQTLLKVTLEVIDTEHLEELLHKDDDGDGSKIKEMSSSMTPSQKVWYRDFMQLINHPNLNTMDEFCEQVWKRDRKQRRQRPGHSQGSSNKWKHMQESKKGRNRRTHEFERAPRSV

T2: ovalbumin (OVA) (UniProt P01012 2-386)
T2 sequence (looked up): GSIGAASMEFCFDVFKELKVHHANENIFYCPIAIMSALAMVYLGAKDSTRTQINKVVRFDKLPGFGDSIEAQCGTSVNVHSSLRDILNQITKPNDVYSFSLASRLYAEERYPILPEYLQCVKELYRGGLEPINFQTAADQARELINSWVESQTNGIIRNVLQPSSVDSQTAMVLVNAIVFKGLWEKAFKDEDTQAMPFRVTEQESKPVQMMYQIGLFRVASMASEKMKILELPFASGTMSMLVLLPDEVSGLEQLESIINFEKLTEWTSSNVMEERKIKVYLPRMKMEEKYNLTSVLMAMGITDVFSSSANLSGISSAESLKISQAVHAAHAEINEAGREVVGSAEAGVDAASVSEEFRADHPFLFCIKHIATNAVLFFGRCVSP

T3: human Sema 3A protein (human, UniProt Q14563 21-771, limits assumed)
T3 construct: also called Human Sema 3A antigen; human-derived Sema 3A protein
T3 sequence (looked up): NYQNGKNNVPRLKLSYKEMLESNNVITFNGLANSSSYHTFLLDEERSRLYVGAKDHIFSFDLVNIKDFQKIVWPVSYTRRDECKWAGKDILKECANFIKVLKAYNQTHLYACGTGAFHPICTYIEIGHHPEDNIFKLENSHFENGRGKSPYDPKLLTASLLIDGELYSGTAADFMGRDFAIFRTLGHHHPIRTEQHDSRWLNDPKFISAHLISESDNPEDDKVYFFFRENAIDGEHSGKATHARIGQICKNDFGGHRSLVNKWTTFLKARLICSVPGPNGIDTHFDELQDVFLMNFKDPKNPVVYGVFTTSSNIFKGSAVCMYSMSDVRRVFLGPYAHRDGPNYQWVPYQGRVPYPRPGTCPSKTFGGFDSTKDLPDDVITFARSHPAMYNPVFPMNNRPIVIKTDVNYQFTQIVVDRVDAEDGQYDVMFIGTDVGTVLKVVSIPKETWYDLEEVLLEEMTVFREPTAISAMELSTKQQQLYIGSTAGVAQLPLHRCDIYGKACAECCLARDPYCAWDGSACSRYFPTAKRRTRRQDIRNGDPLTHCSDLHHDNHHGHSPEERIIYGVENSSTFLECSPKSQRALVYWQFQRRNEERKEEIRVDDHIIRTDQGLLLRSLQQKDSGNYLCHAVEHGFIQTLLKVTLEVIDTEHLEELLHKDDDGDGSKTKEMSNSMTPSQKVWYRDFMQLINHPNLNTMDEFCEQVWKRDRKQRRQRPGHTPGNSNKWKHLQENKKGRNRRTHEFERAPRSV


Key:
[1] = target: T1, mouse Sema 3A protein; assay: competitive ELISA on plate-coated mouse Sema 3A; competitor biotin-labelled avian-mouse chimeric antibody (clone No. 4-2) at 60 ng/mL
Method: (§1) The obtained clone No. 4-2-derived avian-mouse chimeric antibody in Example 1, the obtained humanized antibodies in Example 2 (Humanized-1 and Humanized-2) and avian-human chimeric antibody were subjected to competitive ELISA to evaluate affinity to the antigen. CL18M (+) avian-mouse chimeric antibody, which served as a negative control, was also measured for affinity to the antigen. Particular measurement conditions were as follows.
(§2) Firstly, 2.5 μg/mL of antigen (mouse and human Sema 3A protein) was dispensed into a 384 Well MaxiSorp Plate (Nunc) and reacted overnight at 4° C. in order to coat the plate with the antigen. The next day, the plate was washed three times with 50 μL/well of washing solution (PBS containing 0.05% Tween 20), to which was added 25 μL/well of blocking solution (PBS containing 1% bovine serum albumin) and the mixture was reacted for 30 minutes. Each of humanized antibodies (Humanized-1 and Humanized-2), avian-human chimeric antibody and avian-mouse chimeric antibody was subjected to serial doubling dilution, to which was mixed anti-Sema 3A avian-mouse chimeric antibody labeled with biotin to the final concentration of 60 ng/mL, and the mixture was reacted with the antigen solid phase plate which was washed three times with 50 μL/well of washing solution for one hour. The plate was washed five times with 50 μL/well of washing solution, to which was added 20 μL/well of diluent in which streptavidin labeled with horseradish peroxidase (HRP) (Thermo Fisher Scientific K.K.) was diluted 10000 times with PBS buffer and the mixture was reacted for 30 minutes. The plate was washed five times with 50 μL/well of washing solution, to which was added 20 μL/well of TMB+(Dako) and the mixture was chromogenically reacted for 20 minutes. Subsequently, to the each well was added 20 μL, of 1M sulfuric acid to quench the reaction. The absorbance was measured at 450 nm using Infinite M1000 (Tecan Trading AG).

[2] = target: T2, ovalbumin (OVA); assay: antigen solid phase ELISA: coated ovalbumin, anti-human lambda light chain-HRP, A450
Method: (§3) The obtained avian-mouse chimeric antibody in Example 1 and the obtained humanized antibodies (Humanized-1 and Humanized-2) and avian-human chimeric antibody in Example 2 were measured for antigenic specificity by antigen solid phase ELISA with PBS buffer. The obtained avian-mouse chimeric antibody in Example 1, which was labeled with biotin, was also measured for antigenic specificity. CL18M (+) avian-mouse chimeric antibody, which served as a negative control, was also measured for antigenic specificity. Particular measurement conditions were as follows.
(§4) Firstly, 2.5 μg/mL of antigen (mouse and human Sema 3A protein) was dispensed into a 384 Well MaxiSorp Plate (Nunc) and reacted overnight at 4° C. in order to coat the plate with the antigen. Otherwise, ovalbumin (OVA) and bovine serum albumin (BSA) were immobilized in the plate as negative controls in similar manner in order to examine specificity of antibodies. After reaction, the plate was washed three times with 50 μL/well of washing solution (PBS containing 0.05% Tween 20), to which was added 25 μL/well of blocking solution (PBS buffer containing 1% bovine serum albumin), and the mixture was reacted for 30 minutes. The resultant product was washed three times with 50 μL/well of washing solution, to which were added 20 μL/well of respective antibodies and the mixture was reacted for one hour. The resultant product was washed five times with 50 μL/well of washing solution, to which was added 20 μL of diluent in which anti-human λ light chain goat antibody labeled with horseradish peroxidase (HRP) (SouthernBiotech) was diluted 4000 times with PBS buffer, in which anti-mouse IgG2A goat antibody labeled with horseradish peroxidase (HRP) (Bethyl Laboratories, Inc.) was diluted 2000 times with PBS buffer or in which streptavidin labeled with horseradish peroxidase (HRP) (Thermo Fisher Scientific K.K.) was diluted 10000 times with PBS buffer and the mixture was reacted for one hour. […] The absorbance was measured at 450 nm using Infinite M1000 (Tecan Trading AG).

[3] = target: T3, human Sema 3A protein; assay: competitive ELISA on plate-coated human Sema 3A; competitor biotin-labelled avian-mouse chimeric antibody (clone No. 4-2) at 60 ng/mL
Method: as §1, §2

[4] = target: bovine serum albumin (BSA) (bovine, UniProt P02769 25-607); assay: antigen solid phase ELISA: coated BSA, anti-human lambda light chain-HRP, A450
Sequence of bovine serum albumin (BSA) (P02769 25-607 limits assumed): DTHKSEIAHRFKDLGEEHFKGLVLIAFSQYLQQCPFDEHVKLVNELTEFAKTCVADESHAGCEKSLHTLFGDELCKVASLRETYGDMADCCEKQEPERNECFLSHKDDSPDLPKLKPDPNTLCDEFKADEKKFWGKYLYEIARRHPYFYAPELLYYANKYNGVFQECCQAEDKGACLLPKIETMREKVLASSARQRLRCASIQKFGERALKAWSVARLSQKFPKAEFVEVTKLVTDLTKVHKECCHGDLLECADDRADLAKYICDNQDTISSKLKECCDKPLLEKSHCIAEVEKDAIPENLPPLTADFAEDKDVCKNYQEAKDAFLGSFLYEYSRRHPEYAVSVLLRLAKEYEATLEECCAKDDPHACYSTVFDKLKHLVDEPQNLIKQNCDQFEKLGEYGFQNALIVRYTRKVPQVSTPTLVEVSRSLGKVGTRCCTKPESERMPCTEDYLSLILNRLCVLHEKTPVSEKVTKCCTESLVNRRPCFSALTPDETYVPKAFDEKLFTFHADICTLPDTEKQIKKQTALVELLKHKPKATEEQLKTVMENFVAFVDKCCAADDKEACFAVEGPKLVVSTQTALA
Method: as §3, §4

[5] = target: T3, human Sema 3A protein; assay: direct solid phase ELISA screening with human Sema 3A as antigen

| IC50 [1] [µg/mL] | binding result [2] | IC50 [3] [µg/mL] | binding result [4] | binding result [5] | Binder |
| --- | --- | --- | --- | --- | --- |
| 0.12 | no binding (tested: about 2 µg/mL) | 0.071 | no binding (tested: about 2 µg/mL) | – | Anti-Sema 3A humanized antibody (Humanized-1) (clone No. 4-2 strain-derived) (antibody, human IgG1, lambda, V domains shown, Human IgG1 heavy and human lambda light constant regions) VH: EVQLLESGGGLVQPGGSLRLSCAASGFTFSSYPMGWVRQAPGKGLEWVAGIDDDGDSDTRYAPAVKGRATISRDNSKNTVYLQMNSLRAEDTAVYYCAKHTGIGANSAGSIDAWGQGTLVTVSS VL: SYELTQPPSVSVSPGQTARITCSGGGSYTGSYYYGWYQQKPGQAPVTMIYYNNKRPSDIPERFSGSLSGTTNTLTISGVQAEDEADYYCGSADNSGDAFGTGTKVTVLG |
| 0.157 | no binding (tested: about 2 µg/mL) | 0.101 | no binding (tested: about 2 µg/mL) | – | Anti-Sema 3A humanized antibody (Humanized-2) (clone No. 4-2 strain-derived) (antibody, human IgG1, lambda, V domains shown, Human IgG1 heavy and human lambda light constant regions) VH: EVQLLESGGGLVQPGGSLRLSCAASGFTFSSYPMGWVRQAPGKGLEWVAGIDDDGDSDTRYAPAVKGRATISRDNSKNTVYLQMNSLRAEDTAVYYCAKHTGIGANSAGSIDAWGQGTLVTVSS VL: SYELTQPPSVSVSPGQTARITCSGGGSYTGSYYYGWYQQKPGQAPVTVIYYNNKRPSDIPERFSGSLSGTTNTLTISGVQAEDEADYYCGSADNSGDAFGTGTKVTVLG |
| 0.112 | no binding (tested: about 2 µg/mL) | 0.054 | no binding (tested: about 2 µg/mL) | – | Anti-Sema 3A avian-human chimeric antibody (clone No. 4-2-derived) (antibody, human IgG1) heavy: not shown light: ALTQPASVSANLGGTVKITCSGGGSYTGSYYYGWYQQKSPGSALVTMIYYNNKRPSDIPSRFSGSLSGSTNTLTITGVRADDEAVYFCGSADNSGDAFGAGTTLTVLGQPKANPTVTLFPPSSEELQANKATLVCLISDFYPGAVTVAWKADSSPVKAGVETTTPSKQSNNKYAASSYLSLTPEQWKSHRSYSCQVTHEGSTVEKTVAPTECS |
| – | – | – | – | binds | Anti-Sema 3A avian-mouse chimeric antibody (clone No. 165 strain-derived) (antibody, V domains shown, IgG from DT40 cells in which the constant region of chicken IgM was replaced with that of mouse IgG) VH: AVTLDESGGGLQTPGGGLSLVCKASGFTFSSYEMQWVRQAPGKGLEWVAGIYTGSTWYGAAVKGRATISRDNGQSTVRLQLNNLRAEDTAIYYCAKSGIGVNSAAFIDAWGHGTEVIVSS VL: ALTQPASVSANPGETVKITCSGGGSYGGSYYYGWYQQKAPGSAPVTVIYNNNKRPSNIPSRFSGSLSGSTNTLTITGVRADDEAVYFCGSADNSGTAFGAGTTLTVL |
| – | – | – | – | binds | Anti-Sema 3A avian-mouse chimeric antibody (clone No. 582 strain-derived) (antibody, V domains shown, IgG from DT40 cells in which the constant region of chicken IgM was replaced with that of mouse IgG) VH: AVTLDESGGGLQTPGGALSLVCKASGFTMSSYEMQWVRQAPGKGLEWVAAIYTRSTWYGAAVKGRATISRDNGQSTVRLQLNNLRAEDTGTYYCAKSGIGLNSAAFIDAWGHGTEVIVSS VL: ALTQPASVSANPGETVKITCSGGGSYGGSYYYGWYQQKAPGSAPVTVIYTNNKRPSNIPSRFSGSLSGSTNTLTITGVRADDEAVYFCGSADNSGTAFGAGTTLTVL |
